In US20250270304A1 (PHENOMIC AI, published 2025):
Positions count from the first letter of the chain named. Blank lines part the entries; values can stand above or below the binder they belong to.

Experiments:
[1] = target: T1, Inhibin A (Homo sapiens (Human), UniProt P05111 233-366; P08476 311-426); experiment: ELISA, coated antigen, OD450
T1 sequence 1: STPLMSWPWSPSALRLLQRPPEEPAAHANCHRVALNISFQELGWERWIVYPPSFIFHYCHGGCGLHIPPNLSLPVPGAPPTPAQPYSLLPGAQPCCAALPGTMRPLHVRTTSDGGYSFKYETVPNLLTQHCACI
T1 sequence 2: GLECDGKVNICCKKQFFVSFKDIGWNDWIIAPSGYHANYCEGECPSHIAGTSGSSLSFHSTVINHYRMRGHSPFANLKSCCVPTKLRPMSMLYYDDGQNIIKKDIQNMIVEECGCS

[2] = target: T2, Latent Activin A (human, UniProt P08476 21-426, limits assumed); experiment: ELISA, coated antigen, OD450
T2 construct: also called INHBA latent
T2 sequence: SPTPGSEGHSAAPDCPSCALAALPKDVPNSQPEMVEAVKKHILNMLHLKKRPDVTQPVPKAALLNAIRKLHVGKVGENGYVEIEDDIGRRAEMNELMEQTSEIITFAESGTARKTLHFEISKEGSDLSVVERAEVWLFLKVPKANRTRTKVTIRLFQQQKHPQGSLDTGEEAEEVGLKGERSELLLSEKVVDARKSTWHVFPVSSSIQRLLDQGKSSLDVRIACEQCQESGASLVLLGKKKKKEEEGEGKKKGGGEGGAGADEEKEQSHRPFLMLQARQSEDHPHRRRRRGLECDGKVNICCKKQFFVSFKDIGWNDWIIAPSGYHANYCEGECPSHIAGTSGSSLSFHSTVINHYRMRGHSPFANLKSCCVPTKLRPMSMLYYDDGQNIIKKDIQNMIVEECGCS
Method: (§1) Antibodies were re-expressed in 40 mL cultures of Expi293 cells and purified using protein G magnetic sepharose beads (Cytiva, Marlborough, MA) to provide larger quantities for secondary screening. Secondary screening included dose responses in both functional assays described above (SMAD nuclear localization and fibroblast activations assays) as well as in binding assays to the same antigens listed in Table 3. Plates were coated with 25 μL of 3 μg/mL antigen in 384-well Maxisorp plates overnight at 4° C. with agitation. The next day, the samples in the plates were blocked with 70 μL blocking buffer (PBS+1% BSA+0.1% Tween-20) for 2 hours at room temperature. Plates were then washed three times with 100 μL of wash buffer (PBS+0.1% Tween-20). Primary antibodies in Expi293 expression medium were diluted 1:3 in blocking buffer, 25 μL added per well, and the plates were incubated for an hour at room temperature with agitation. Plates were then washed three times and 25 μL of secondary antibody (goat anti-Human IgG, HRP conjugated; Jackson Immunoresearch) diluted 1:5000 in blocking buffer was added for 30 minutes at room temperature. The wells in the plates were washed six times with wash buffer and TMB substrate was added followed by 1 M H3PO4.

[3] = target: T3, Mature Activin A (human, UniProt P08476 311-426); experiment: ELISA, coated antigen, OD450
T3 construct: also called active Activin A; INHBA mature
T3 sequence: T1 sequence 2
Method: as §1

[4] = target: T4, Activin B (Homo sapiens (Human), UniProt P09529 293-407); experiment: ELISA, coated antigen, OD450
T4 construct: also called Mature Activin B; mature Activin B
T4 sequence: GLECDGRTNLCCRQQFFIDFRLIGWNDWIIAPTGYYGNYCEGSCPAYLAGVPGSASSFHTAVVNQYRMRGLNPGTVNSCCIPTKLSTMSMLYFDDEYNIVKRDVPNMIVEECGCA
Method: as §1

[5] = target: T1, Inhibin A; experiment: ELISA, coated antigen, OD450; remark: listed apart in the source
Method: as §1

[6] = target: T4, Activin B; experiment: ELISA, coated antigen, OD450; remark: listed apart in the source
[7] = target: T2, Latent Activin A; experiment: ELISA dose-response, coated antigen
Method: as §1

[8] = target: T3, Mature Activin A; experiment: ELISA dose-response, coated antigen
Method: as §1

[9] = target: T4, Activin B; experiment: ELISA dose-response, coated antigen
Method: as §1

B1: AB432 (antibody, IgG1, V domains shown)
VH: QVQLQESGPGLVKPSQTLSLTCTVSGVSLSNVRMGVNWIRQPPGKGLEWIGYVNPSGSTDYNPSLKSRVTMSVDTSKNQFSLKVNSVTAADTAVYYCARAGYPDVWGKGTLVTVSS
VL: EIVMTQSPATLSLSPGERATLSCRASQSISSSQLAWYQQKPGQAPRLLIYGASTRATGIPARFSGSGSGTDFTLTISSLEPEDFAVYYCQQYNDRPRTFGGGTKVEIK
binding result [1]: no binding (tested: 1.40-fold over BSA)
fold-change of OD 450 over negative control (BSA) [2]: 10.4 fold
fold-change of OD 450 over negative control (BSA) [3]: 8.86 fold
fold-change of OD 450 over negative control (BSA) [4]: 1.72 fold
fold-change of OD 450 over negative control (BSA) [5]: 0.74 fold

B2: AB353 (antibody, IgG1, V domains shown)
VH: B1 VH with V27L, V32A, R33K, N54S, P55T, S56T, S58T, L111T
VL: EIVMTQSPATLSLSPGERATLSCRASQNVYTNLAWYQQKPGQAPRLLIYGASARASGIPARFSGSGSGTDFTLTISSLEPEDFAVYYCLQYGSSPPLFGGGTKVEIK
binding result [6]: no binding (tested: 1.40-fold over BSA)
binding result [1]: no binding (tested: 1.40-fold over BSA)
fold-change of OD 450 over negative control (BSA) [2]: 4.4 fold
fold-change of OD 450 over negative control (BSA) [3]: 8.98 fold
fold-change of OD 450 over negative control (BSA) [4]: 0.72 fold
fold-change of OD 450 over negative control (BSA) [5]: 0.61 fold

B4: AB346 (antibody, IgG1, V domains shown)
VH: B1 VH with V27F, S28P, N31T, V32S, V53I, S58A, L111T
VL: EIVMTQSPATLSLSPGERATLSCRASRSVSSDLAWYQQKPGQAPRLLIYDVSTRATGIPARFSGSGSGTDFTLTISSLEPEDFAVYYCQQYGSSLPPTFGGGTKVEIK
fold-change of OD 450 over negative control (BSA) [2]: 13.8 fold
fold-change of OD 450 over negative control (BSA) [3]: 14 fold
fold-change of OD 450 over negative control (BSA) [4]: 2.46 fold
fold-change of OD 450 over negative control (BSA) [5]: 0.58 fold

B6: AB347 (antibody, IgG1, V domains shown)
VH: B1 VH with V27F, S28P, N31T, V32S, V53I, S58A, L111T
VL: EIVMTQSPATLSLSPGERATLSCRASQNIGHSLAWYQQKPGQAPRLLIYGASIRAPGIPARFSGSGSGTDFTLTISSLEPEDFAVYYCQQYITWPSTFGGGTKVEIK
fold-change of OD 450 over negative control (BSA) [2]: 10.2 fold
fold-change of OD 450 over negative control (BSA) [3]: 10.2 fold
fold-change of OD 450 over negative control (BSA) [4]: 2.54 fold
fold-change of OD 450 over negative control (BSA) [5]: 0.74 fold
EC50 [7]: 2460 pM
EC50 [8]: 720 pM
EC50 [9]: 950 pM

B7: AB433 (antibody, IgG1, V domains shown)
VH: B1 VH with V27F, S28P, N31T, V32S, V53I, S58A, L111T
VL: EIVMTQSPATLSLSPGERATLSCRASQSVRTSLAWYQQKPGQAPRLLIYDTSIRAAGIPARFSGSGSGTDFTLTISSLEPEDFAVYYCQQYGNWHFGGGTKVEIK
fold-change of OD 450 over negative control (BSA) [2]: 10.5 fold
fold-change of OD 450 over negative control (BSA) [3]: 9.41 fold
fold-change of OD 450 over negative control (BSA) [4]: 2.5 fold
fold-change of OD 450 over negative control (BSA) [5]: 0.72 fold

B9: AB854 (antibody, IgG1, V domains shown)
VH: EVQLVQSGAEVKKPGASVKVSCKASGYTFPSHYISWVRQAPGQGLEWMGGMNPITGHTIYAQKLQGRGTMTTDPSTSTAYMELRSLRSDDTAVYYCARDMRYDILPGRSYYYGMDVWGQGTTVTVSS
VL: ESALTQPASVSGSPGQSITISCTGTTGSIASNYVSWYQQHPGKAPKLMIYDTTNRPPGVSNRFSGSKSGNTASLTISGLQAEDEADYYCQSTERGRSDVIFGGGTKLTVL
notes: also called clone 854
EC50 [7]: 1000 pM
EC50 [8]: 30 pM
EC50 [9]: 270 pM

B10: AB357 (antibody, IgG1, V domains shown)
VH: B9 VH
VL: ESALTQPASVSGSPGQSITISCTGTDIRGMSVSWYQQHPGKAPKLMIYEVNQRPSGVSNRFSGSKSGNTASLTISGLQAEDEADYYCAAWDASVAGYVFGGGTKLTVL
fold-change of OD 450 over negative control (BSA) [2]: 6.59 fold
fold-change of OD 450 over negative control (BSA) [3]: 6.99 fold
fold-change of OD 450 over negative control (BSA) [4]: 2.44 fold
fold-change of OD 450 over negative control (BSA) [5]: 0.77 fold

B12: AB731 (antibody, IgG1, V domains shown)
VH: QVQLQQPGTELVKPGASVKLSCKASGYTFTSYWMHWVKQRPGQGLEWIGNINPSNGGTNYNEKFKSKATLTVDKSSSTAYMQLSSLTSEDSAVYYCSITTVVAYWYFDVWGTGTTVTVSS
VL: ENVLTQSPAIMSASPGEKVTISCSASSSVSYMYWYQQKPGSSPKPWIFRTYNLASGVPARFSGSGSGTSYSLTISNMEAEDAATYYCQQRSSYPWTFGGGTKLEIK
notes: also called clone 731
EC50 [7]: 870 pM
EC50 [8]: 420 pM
EC50 [9]: 490 pM

The remaining lines, values ahead:

binding result [1]: no binding (tested: 1.40-fold over BSA)
fold-change of OD 450 over negative control (BSA) [2]: 15.2 fold
fold-change of OD 450 over negative control (BSA) [3]: 16.2 fold
fold-change of OD 450 over negative control (BSA) [4]: 2.03 fold
fold-change of OD 450 over negative control (BSA) [5]: 0.61 fold
B3: AB352 (antibody, IgG1, V domains shown)
VH: B1 VH with V27F, S28P, N31T, V32S, V53I, S58A, L111T
VL: EIVMTQSPATLSLSPGERATLSCRASQSVSTHLAWYQQKPGQAPRLLIYDATNRATGIPARFSGSGSGTDFTLTISSLEPEDFAVYYCLQYTNYPWTFGGGTKVEIK

binding result [6]: no binding (tested: 1.40-fold over BSA)
binding result [1]: no binding (tested: 1.40-fold over BSA)
fold-change of OD 450 over negative control (BSA) [2]: 7.33 fold
fold-change of OD 450 over negative control (BSA) [3]: 10.6 fold
fold-change of OD 450 over negative control (BSA) [4]: 0.74 fold
fold-change of OD 450 over negative control (BSA) [5]: 0.65 fold
B5: AB350 (antibody, IgG1, V domains shown)
VH: B1 VH with N31D, V32A, N54S, P55T, S56T, S58T
VL: EIVMTQSPATLSLSPGERATLSCRASESVRSNLAWYQQKPGQAPRLLIYGASNRASGIPARFSGSGSGTDFTLTISSLEPEDFAVYYCQQYHTWPPWAFGGGTKVEIK

binding result [6]: no binding (tested: 1.40-fold over BSA)
binding result [1]: no binding (tested: 1.40-fold over BSA)
fold-change of OD 450 over negative control (BSA) [2]: 1.9 fold
fold-change of OD 450 over negative control (BSA) [3]: 2.33 fold
fold-change of OD 450 over negative control (BSA) [4]: 1.04 fold
fold-change of OD 450 over negative control (BSA) [5]: 1.11 fold
B8: AB340 (antibody, IgG1, V domains shown)
VH: EVQLVESGGGLVQPGGSLRLSCAASGFTASRNYMSWVRQAPGKGLELVASISGSGDYTYYPDSVKGRFTISRDNAKNSLYLQMNSLRAEDTAVYYCARSPRGPRLLGYYYGMDVWGQGTTVTVSS
VL: DIVMTQSPLSLPVTPGEPASISCRSSRSLVHGSGHNYLHWYLQKPGQSPQLLIYGASTRVAGVPDRFSGSGSGTDFTLKISRVEAEDVGVYYCMQGTQAPRTFGGGTKVEIK

binding result [6]: no binding (tested: 1.40-fold over BSA)
fold-change of OD 450 over negative control (BSA) [2]: 5.91 fold
fold-change of OD 450 over negative control (BSA) [3]: 6.01 fold
fold-change of OD 450 over negative control (BSA) [4]: 0.58 fold
fold-change of OD 450 over negative control (BSA) [5]: 8.53 fold
B11: AB326 (antibody, IgG1, V domains shown)
VH: QVQLVQSGAEVKKPGASVKVSCKVSGYTFTSSAISWVRQAPGKGLEWMGGIYPGSGHTIYAQKFQGRVTMTEDTSTDTAYMELSSLKSEDTAVYYCAREGDIFVMDVWGLGTAVTVSS
VL: DIQMTQSPSSVSASVGDRVTITCRASMDIRNDLAWYQQKPGKAPKLLIYDASKLETGVPSRFSGSGSGTDFTLTISSLQPEDFANYYCQQAKSFPPTFGGGTKVEIK
